Assay results as given in the Human Domainome abundance scans (Beltran et al. 2025).
± gives the uncertainty stated by the source.

B1: POU domain, class 3, transcription factor 4, residues 280 to 335; numbered along this chain, P49335 (parent)
chain: KKRTSIEVSVKGVLETHFLKCPKPAAQEISSLADSLQLEKEVVRVWFCNRRQKEKR

Variants of: B1
Test: abundance fitness (aPCA) (normalised: wild type 0, dead -1); higher = more abundant; growth selection in yeast, the domain comes from the species named
Conditions: Homo sapiens

| Variant | abundance fitness |
| --- | --- |
| KKRTSIEVSVKGVLETHFLKCPKPAAQEISSLADSLQLEKCVVRVWFCNRRQKEKR [E41C] | -0.84 ± 0.23 |
| KKRTSIEVSVKGVLETHFLKCPKPAAQEISSLADSLQLEKPVVRVWFCNRRQKEKR [E41P] | -0.831 ± 0.25 |
| KKRTSIEYSVKGVLETHFLKCPKPAAQEISSLADSLQLEKEVVRVWFCNRRQKEKR [V8Y] | 0.231 ± 0.4 |
| KKRTSIEKSVKGVLETHFLKCPKPAAQEISSLADSLQLEKEVVRVWFCNRRQKEKR [V8K] | 0.842 ± 0.22 |
| KKRTSIEVSVKGVLETHFLKCPKPAAQEISSLADSLQLEKEVVRVWFCNARQKEKR [R50A] | -0.582 ± 0.14 |
| KKRTSIEVSVKGVMETHFLKCPKPAAQEISSLADSLQLEKEVVRVWFCNRRQKEKR [L14M] | -0.623 ± 0.17 |
| KKRTSIEVSVKGVGETHFLKCPKPAAQEISSLADSLQLEKEVVRVWFCNRRQKEKR [L14G] | -0.891 ± 0.12 |
| KKRTSIEVSVKGVNETHFLKCPKPAAQEISSLADSLQLEKEVVRVWFCNRRQKEKR [L14N] | -0.564 ± 0.23 |
| KKRTSIEVSVKGVLETHFLKKPKPAAQEISSLADSLQLEKEVVRVWFCNRRQKEKR [C21K] | -0.725 ± 0.33 |
| KKRTSIEVSVKGVLETHFLKCPKPAAQEISSLADSLQLEKEVPRVWFCNRRQKEKR [V43P] | -0.774 ± 0.23 |
| KKRTSIEVSVKGVLETHFLHCPKPAAQEISSLADSLQLEKEVVRVWFCNRRQKEKR [K20H] | -0.693 ± 0.26 |
| KKRTSIEVSVKGVLETHFLICPKPAAQEISSLADSLQLEKEVVRVWFCNRRQKEKR [K20I] | -0.574 ± 0.2 |
| KKRTSIEVSVKGVLETHFLKCPKPAAQEISSLADSLQLEGEVVRVWFCNRRQKEKR [K40G] | -0.441 ± 0.16 |
| KKRTSIEVSVKGVLETHFLKCPKPAAQEISSLADSLQLEQEVVRVWFCNRRQKEKR [K40Q] | -0.063 ± 0.19 |
| KKRTSIEVSVKGVLETHFLKCPKPAAQEISSLADSLQLEWEVVRVWFCNRRQKEKR [K40W] | -0.539 ± 0.18 |
| KKRTSIPVSVKGVLETHFLKCPKPAAQEISSLADSLQLEKEVVRVWFCNRRQKEKR [E7P] | 0.607 ± 0.084 |
| KKRTSIKVSVKGVLETHFLKCPKPAAQEISSLADSLQLEKEVVRVWFCNRRQKEKR [E7K] | 0.271 ± 0.15 |
| KKRTSIEVSVKGVLETHFLKCPKPAAQEISSLADSGQLEKEVVRVWFCNRRQKEKR [L36G] | -0.703 ± 0.33 |
| KKRTSHEVSVKGVLETHFLKCPKPAAQEISSLADSLQLEKEVVRVWFCNRRQKEKR [I6H] | -0.128 ± 0.097 |
| KKRTSPEVSVKGVLETHFLKCPKPAAQEISSLADSLQLEKEVVRVWFCNRRQKEKR [I6P] | -0.169 ± 0.091 |
| KKRTSQEVSVKGVLETHFLKCPKPAAQEISSLADSLQLEKEVVRVWFCNRRQKEKR [I6Q] | -0.123 ± 0.15 |
| KKRTSTEVSVKGVLETHFLKCPKPAAQEISSLADSLQLEKEVVRVWFCNRRQKEKR [I6T] | -0.201 ± 0.096 |
| KKRTSIEVSVKGVLETHFLKCPKPAAQEISSLADSLQLEKEFVRVWFCNRRQKEKR [V42F] | -0.318 ± 0.26 |
| KKRTSIEVSVKGVLETHFLKCPKPAAQEISSLADSLQLEKEAVRVWFCNRRQKEKR [V42A] | -0.552 ± 0.22 |

| Variant | abundance fitness |
| --- | --- |
| KKRTSIEVSVKGVLETHFLKCPKPAAQEISSLADSLQLEKEEVRVWFCNRRQKEKR [V42E] | 0.185 ± 0.2 |
| KKRTSIEVSVKGVLETHFLKCPKPAAQEISSLADSLQLEKEKVRVWFCNRRQKEKR [V42K] | -0.596 ± 0.35 |
| KKRTSIEVSVKGVLETHFLKCPKPAAQEILSLADSLQLEKEVVRVWFCNRRQKEKR [S30L] | -0.536 ± 0.16 |
| KKRTSIEVSVKGVLETHFLKCPKPAAQEIDSLADSLQLEKEVVRVWFCNRRQKEKR [S30D] | 0.08 ± 0.14 |
| KKRTSIEVSVKGVLETHFLKCPKPAAQEISSLADSLQLEKEVVRVWFHNRRQKEKR [C48H] | 0.068 ± 0.28 |
| KKRTSIEVSVKGVLETHFLKCPKPAAQEISSLADSLQLEKEVVRVWFPNRRQKEKR [C48P] | -0.762 ± 0.21 |
| KKRTSIEVSVKGVLETHFLKCPKPAAGEISSLADSLQLEKEVVRVWFCNRRQKEKR [Q27G] | -0.172 ± 0.1 |
| KKRTSIEVSVKGVLETHFLKCPKPAATEISSLADSLQLEKEVVRVWFCNRRQKEKR [Q27T] | -0.335 ± 0.15 |
| KKRTSIEVSVKGVLETHFLKCPKPAAREISSLADSLQLEKEVVRVWFCNRRQKEKR [Q27R] | -0.054 ± 0.12 |
| KKRTSIEVSVKGVLHTHFLKCPKPAAQEISSLADSLQLEKEVVRVWFCNRRQKEKR [E15H] | -0.873 ± 0.31 |
| KKRTNIEVSVKGVLETHFLKCPKPAAQEISSLADSLQLEKEVVRVWFCNRRQKEKR [S5N] | 0.216 ± 0.24 |
| KKRTAIEVSVKGVLETHFLKCPKPAAQEISSLADSLQLEKEVVRVWFCNRRQKEKR [S5A] | 0.11 ± 0.13 |
| KKRTSIEVSVKGVLETHFLKCPKPAAQEISSLADSLQLEKEVVRVWFCNRRDKEKR [Q52D] | 0.231 ± 0.2 |
| KKRTSIEVSVKGVLETHFLKCPKPAAQEISSLADSLQLEKEVVRVWFCNRRWKEKR [Q52W] | -0.685 ± 0.23 |
| KKRTSIEVSVKGVLETHFLKCPKPAAQEISSLADSLQLEKEVVRVWFCNRRCKEKR [Q52C] | -0.291 ± 0.21 |
| KKRTSIEVSVKGVLETHFLKCPKPAAQEISSLADSLQLEKEVVRVWFCNRREKEKR [Q52E] | 0.084 ± 0.17 |
| KKRTSIEVSVKGVLETHFLKCPKPAAQEISSLADSLQLEKEVVRVWFCNRRFKEKR [Q52F] | -0.931 ± 0.38 |
| KKRTSIEVSVKGVLETHFLKCPKPAAQEISSLADSLQLEKEVVRVWFCNRRQKEKY [R56Y] | -0.144 ± 0.43 |
| KKRTSIEVSVKGVLETHFLKCPRPAAQEISSLADSLQLEKEVVRVWFCNRRQKEKR [K23R] | 0.118 ± 0.12 |
| KKRTSIEVSVKGVLETHFLKCPKPAAQEISSLADSLQLEKEVVRVWFCNRRQKEWR [K55W] | -0.497 ± 0.24 |
| KKRTSIEVSVKGVLETHFLKCPKPAAQEISSLADSLQLEKEVVRVWFCNRRQKEER [K55E] | -0.259 ± 0.22 |
| KKRTSIEVSVKGVLETHFLKCPKPAAQEISSLADSLQLEKEVVRVWFCNRRQKEFR [K55F] | -0.194 ± 0.32 |
| KKRTSIEVSVKGVLETHFLKCPKPAAQEISSLADSLQLEKEVVRVWFCNRRQKEPR [K55P] | -0.764 ± 0.33 |
